The values that follow come from patent publication US20150247163.

Residue numbers refer to the chain shown, from its start. In names and notes the source's numbering stands.

Data set [1] deals with T1, PBS1^TCS-HA (PBS1 in which the seven amino acids flanking the AvrPphB cleavage site are replaced with a TEV cleavage site, fused to 3xHA).
T1 chain: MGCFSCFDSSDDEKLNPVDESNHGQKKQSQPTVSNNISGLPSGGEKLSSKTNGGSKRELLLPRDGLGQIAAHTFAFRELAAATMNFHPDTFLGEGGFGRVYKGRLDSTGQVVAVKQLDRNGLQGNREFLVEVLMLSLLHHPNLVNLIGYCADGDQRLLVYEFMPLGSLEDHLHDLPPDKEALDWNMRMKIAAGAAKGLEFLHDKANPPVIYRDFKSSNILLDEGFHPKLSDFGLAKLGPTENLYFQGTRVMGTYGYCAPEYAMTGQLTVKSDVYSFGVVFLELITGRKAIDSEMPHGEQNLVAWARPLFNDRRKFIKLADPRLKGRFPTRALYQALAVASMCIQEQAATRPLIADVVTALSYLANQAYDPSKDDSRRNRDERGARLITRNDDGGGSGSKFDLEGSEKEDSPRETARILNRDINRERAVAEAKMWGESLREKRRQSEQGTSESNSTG

The target in data set [2] is T2, wild-type PBS1 (AvrPphB susceptible 1), Q9FE20.
T2 chain: T1 chain with E241G, N242D, L243K, Y244S, F245H, Q246V, G247S

Data set [3] concerns the target T3, PBS1^RCS2-HA (PBS1 in which the AvrPphB cleavage site GDKSHVS is replaced with the RIN4 cleavage site 2 VPKFGDW, fused to a C-terminal 3xHA epitope).
T3 chain: T1 chain with E241V, N242P, L243K, Y244F, F245G, Q246D, G247W

B1: TEV protease (NIa protease of Tobacco Etch Virus) fused to 5xMyc (protein)
chain: GESLFKGPRDYNPISSTICHLTNESDGHTTSLYGIGFGPFIITNKHLFRRNNGTLLVQSLHGVFKVKNTTTLQQHLIDGRDMIIIRMPKDFPPFPQKLKFREPQREERICLVTTNFQTKSMSSMVSDTSCTFPSSDGIFWKHWIQTKDGQCGSPLVSTRDGFIVGIHSASNFTNTNNYFTSVPKNFMELLTNQEAQQWVSGWRLNADSVLWGGHKVFMSKPEEPFQPVKEATQLMNELVYSQ
As to B1, in data set [1], the “cleavage by immunoblot, 6 hours post induction” value is listed as “TEV protease cleaved PBS1^TCS 6 hours post induction”. The cleavage by immunoblot entry in data set [2] is reported as “TEV protease did not cleave wild-type PBS1”.

B2: AvrRpt2 (Example 1 pTA7002 construct; also as delivered by P. syringae DC3000(avrRpt2)) (protein)
chain: MKIAPVAINHSPLSREVPSHAAPTQAKQTNLQSEAGDLDARKSSASSPETRALLATKTVLGRHKIEVPAFGGWFKKKSSKHETGGSSANADSSSVASDSTEKPLFRLTHVPYVSQGNERMGCWYACARMVGHSVEAGPRLGLPELYEGREGPAGLQDFSDVERFIHNEGLTRVDLPDNERFTHEELGALLYKHGPIIFGWKTPNDSWHMSVLTGVDKETSSITFHDPRQGPDLAMPLDYFNQRLAWQVPHAMLYR
On to B2, for which the “cleavage product by anti-HA immunoprecipitation and immunoblot, transgenic Arabidopsis line #5, 12 hours after inoculation” value in data set [3] is “a cleavage product of PBS1^RCS2 was detected in transgenic line #5 twelve hours after inoculation with DC3000(avrRpt2), but not with DC3000 lacking avrRpt2”.

B3: AvrRpt2 fused to 5xMyc (Example 5 construct) (protein)
chain: B2 chain
As to B3, in data set [3], the “cleavage by immunoblot, 6 hours post-induction” value is given as “AvrRpt2 cleaved PBS1^RCS2 at 6 hours post-induction” and the “cleavage by immunoblot, 24 hours post-induction” value is given as “At 24 hours post-induction, AvrRpt2-induced cleavage was increased”.

B4: C122A (protease-deficient mutant form of AvrRpt2) fused to 5xMyc (protein)
chain: B2 chain with C122A
Regarding B4, the “cleavage by immunoblot, 24 hours post-induction” value in data set [3] was “even C122A induced small amounts of cleavage”.
